This data set is described as follows: soluble on expression in E. coli; label from the status in PepcDB or PDB records.
For “MEQNGFHTLSLFLNPKVLRPLLTQAVTQLPKYFLGQSSTPPSTSFEGRYKPSFLERAAFSTNPFDNTGSDTQQKLSPTELIRGSYGEGREAGKKTPAELIMSTDDLKRQMPSLPDALKDTIRIQEVPKQEKSDFSEQGGVASMIPQSPFVSNIDKVSGDEAGRQQKDVMDYITEFNNRSMPEEQRGSSPVNEETLSHTPISEEEHLKANDMPEQATDYVNAVGNFIHKDANPSNLWERFRKSEFSEHLMDFFAGLASGKTPQESFSNAALVMRQGNNTRLQNRPIFAFLRSKGYDDKDAQAIMQYPDLAMKVIGSTLSPQEDYRTLTAEEKAKQGLPEDMAFQISTSTGKIIPVQGGQRSTASGLGGNTDSMLSKPESGYMLVKDKNAPHGIRAMPIAGSGAEHKLIQEQKEEERKEQQAKMQILESADRSNRIISTSKELLKIVDEHPHVAGFLGYWGSFIPGFKAKDFGHMLDSLKASIGLDALTKAKAFSPNGASGFGNLSNMELQALQNSVAALYQDLTAEQLKKSLTTIIDTFNKSNAATRAILFGGAEATRELVRAAYGEDAYKKNNTQSDVSLEKQIEALPEGILFIDSDGRIKEKQTNG”, the “soluble on expression in E. coli” value is listed as “not soluble”. For “MGSDKIHHHHHHMDTLQKTIHNSEYPVVCRSCEARHGGLCSTLTPQQLCDLNRHSSRKKLEAGNELLGQGELVTSYGNILNGVVKLSKMMSDGRQQIVGLQFAPDFLGRPFMAESKMTAEAATDVEICLFPRRIVDRMVTEVPDMERKLHSQSLKELDEARDWMLTLGRKSAQEKVASFLYMIATHIDPENDDKSCFDLPLSRADIADFLGLTIETVSRQMTKLRKEGTIRIENNRHITVPDLDVLSEAAGND”, the “soluble on expression in E. coli” value is listed as “not soluble”. “MGSDKIHHHHHHMLNSQSKLDQEVIEGIHRIRENGVLPFIATGRGHFELDEIMSLTGISGAVAMNGQYIVLDGETIYKEEIPTSSVEKLLEAASPHSEALSFYDSQGYWVSELTDLAKTAYAYTHMPMPQADARRYLSQEVNMLLVLTNQLSQVDYYKERVPELNFFMNSPSSIDVTNSTTNKGTGINHVKEVLNFTGQTFAFGDGRNDLDLFKAADHRTAMGNAVPELKELADFISTENTNHGIINAFNHWGIM”: the “soluble on expression in E. coli” value is recorded as “not soluble”. For “MGSDKIHHHHHHMLMKSSTEQIRRQNSALVLAALRVEQAMSHTQIAAVTGLASATVTAITSELEQAGVIERHEQQIAGARGRPRVALSRRRDFAYVMSVRISSDRLNYTLSDFRGKLMDRFEEPRPLDVSAAGFIEGLGRNLARLASRSKLEPEKVAVLSVSSKGIVDAGGARLLWTPVFGQQPLDLKAALGDFEKAMALLSNETLLVAHGLSRRMDAQDGTFRGLIALSLGHSIGLGIARPMPDGTVAVSAPNFGHMLNTADSKLCRCGARGCIEASAGFYGILRMAFEVRPDTIPAKFVPITEMDKIALSARQGNRMAQYAFRQAGLALGQGLSRVFSLHETLPVTITGPGTRYYDLLAQGLEEGLAQSLQVRLDGAPPISLVGDEADLVQEGHVDHALRAIDERLFGGG” the value was “not soluble”.

Turning to “MEGLSMDQVVIFKQIFDKVRNDLNYQWFYSELKRHNVSHYIYYLATENVHIVLKNDNTVLLKGLKNIVSVKFSKDRHLIETTSNKLKSREITFQEYRRNLAKAGVFRWVTNIHEQKRYYYTFDNSLLFTESIQKTTQILPRLEHHHHHH”, the “soluble on expression in E. coli” value is recorded as “soluble”. For “CGKSEAPPPAQTPEVGIVTLEAQTVTLNTELPGRTNAFRIAEVRPQVNGIILKRLFKEGSDVKAGQQLYQIDPATYEADYQSAQANLASTQEQAQRYKLLVADQAVSKQQYADANAAYLQSKAAVEQARINLRYTKVLSPISGRIGRSAVTEGALVTNGQANAMATVQQLDPIYVDVTQPSTALLRLRRELASGQLERAGDNAAKVSLKLEDGSQYPLEGRLEFSEVSVDEGTGSVTIRAVFPNPNNELLPGMFVHAQLQEGVKQKAILAPQQGVTRDLKGQATALVVNAQNKVELRVIKADRVIGDKWLVTEGLNAGDKIITEGLQFVQPGVEVKTVPAKNVASAQKADAAPAKTDSKG” the value was “soluble”; for “GPGSMGSGCSTESSTDVRCSFVGLMDEKKESWRGRLLGDIGKDPTGVTRDFPRTQVYVAAPNRNNYYREKQDHVSVLVLKDKEDESKYFSDRNERVRESLELLVELCGEDSSVIKSEWEKQQKDIPDSSSLLMTVLLESGMMRATEANTENGGAGGETDAVTNIQNGGGGYAPKYTVHSKALRLMQYMVQSVAFFSTQHVTDALRFSWCKHMQDVSWAVYVYTEGGACGKERNSSDEILVLRHMHTLRHYVGQSERSTHPRFEVDWACTFHIDLKRLLDANNTAAKEATFAPEGEVQRIDGELLAARIESPNRKLCRITSTWKKRRSELEGRLMECFGVELTKVDVLDENGPLSALNSGG”, “not soluble”. For the sequence “MSLHLIPRPKSVINHEGEFFIERDTEIILSSELSFEDLNLAIMIQKEIEKVLDFKLNINKLFMDKKYSNSIILREFKFENEEEYKIEIKENQVIIEGFGAGLFYGCQSFRQLVREFGACIPNLTIEDSPYFKYRGFYHDVTRGMVPTLDTLKRLVDKAAFYKINQLQLYIEHTFAFKGMSEVWMDKDPLTAEEILILDKYCKERHVELVPSLSTFGHLYEALRSKSFRELCELEIGDEEYSFVDRMAHHTLDVTNPKSLDFVESMLLEFIPLFSSDKFNICCDETFDLGKGKSREKAEKLGVGKIYTEFLNKVYNIVKRFNKNVMFWGDIIVGYPELLSDIPEDLTCLTWNYHPQANDVATKIIAENNKVQYVCPGVGGWNMMMNLIEGSFSNIRRMVNHGMKYGAIGVLNTNWGDYGNINLLANSMPSMIYGAGISWNPKEEEFNEIFKSISLMEFGDESMKVVSLMDKLSKNQVAGWGELVRWKEKFNEREETKEEIKNIDTLKVFEGYKVASEVRREFIKLLKNTEDKEAIQSFIVSSKGWELIDKFFMVLLEREFNKKSLLDIDKKDLAKDLELWFYDYTSIWRKYNKESELNRIREVIVYMCSYLRGEGHHHHHH”, the “soluble on expression in E. coli” value is on record as “soluble”. Regarding “MKQTFITLGEGLTDLFEFMTMIEYNHQRIDKIIYFHSPQAENKKSSVAIIMNPTTGNHFQAFYIMINAIKYPYPDSNKKFQMINDCAEKFDIPILGIDVQPPQAFHDLSLYYNYLISVLRLQKWIPELQLEHHHHHH”, the “soluble on expression in E. coli” value is on record as “not soluble”.

Consider “MIVFKAENLSVGYNGVKAVSNINFSAKQGEIICLLGPNGAGKTTIIRTLSGLLPPIEGEIHINGKSLSTINKKLLAQTLSVVLTEKPSFDVMTAFDVVSLGRFPHTGFFGTITKEHEIKVVEALKTVGALNLIDKYFHILSDGERQKVMLARALVQEPQIIILDEPTTHLDINHKIELLNTLKNLSRTAKLTVILSLHEIDLALKYCDKVMLVENKKVLSFGSPETTVNGETINKLYGIKNASFNPITSSIELKNSEKSNIYVIGGCGFGTPIYRLLSKYNLGFSTGILHENDIDYETAKTMSLRLQSEKPFQKISKISFEKALAAVASSDIIIDSGFPIGETNEKNLNLLNYAVEKNKRVITFRKYFNSTMSYCSNKDALIDFILRLEHHHHHH”, for which the “soluble on expression in E. coli” value is given as “not soluble”. For “MGSDKIHHHHHHMNITNNRQYSWVGSREMCLDEISIKQYGEIVIGKYGGNISAGANKNEDGALVWSNGDWEFAAILDGHNSAESVDLVVNTIQKEYENIKEMMNESIDTVFRSIENHILTIFQSSSFKEKCQRIKGETACLLCVRKENYIWWLSIGDCLVYVFHDELHKLGQYALNQRHFYEWIGNVNTFDVPVPCYSSGIRELRTGNNRIVMVTDGVLEYGERRYETPLNLYNDMNRNNIKLEESVHHVLEHVHHQFGRDSATIISWDVENKGKATYPSDQPDKK” the value was “not soluble”; for “MNYYMHHIGDYKSDASYLSLQEHGIYFLLLSHYYATEKPIPADKTHTYRIAYARTKKEKSAVDFVLDTFFSLQEDGWHNKRCDEEIAAYKEGDAWHEHKEANKNGQNTRTRRHRKERSRLFAELKDHQVTPEWNMPIKELRLLHKKTCHAPVTAVTPPVTPVTPVTPVTPVTPTQEESFTGPSSSLRSEERLIRAENETSIKELRQWNAKTNAKTGNAPVTAVTAKPLTINPLTIISSSLCSEESLVFAEDGNATGSTGKPKRSPHGSRLPDD”, “not soluble”; for “MRIRRRDEKENQEYKKGLWTVEEDNILMDYVLNHGTGQWNRIVRKTGLKRCGKSCRLRWMNYLSPNVNKGNFTEQEEDLIIRLHKLLGNRWSLIAKRVPGRTDNQVKNYWNTHLSKKLVGDYSSAVKTTGEDDDSPPSLFITAATPSSCHHQQENIYENIAKSFNGVVSASYEDKPKQELAQKDVLMATTNDPSHYYGNNALWVHDDDFELSSLVMMNFASGDVEYCL”, “not soluble”. As for “MGSDKIHHHHHHMRIIEASAVHAAVRQMILAANRVLGDDVYAALKSSMESETSASGREVLRQLLENADLAASGGLALCQDTGAAVFFVEMGEDVRLGGGSLQHVLNSAMAQAYEEGCLRKSMCHPLTRCNTGDNRPAIVHTELVEGDRLTIRYMAKGGGSENMSRCTMLTPAQGWQGIKEFVVRRMAEAGPNPCPPTIVGVGIGGTFDLAPALAKRALFRRLDDVHPDAEVAAMETELLDALNALGIGPMGLGGRTTCLAVKIALHPCHIASLPVAVNVQCHSARHREVIL”, the “soluble on expression in E. coli” value is listed as “not soluble”. To “MIINLVKQLGTTRGYITLWTGIDSAIAALAVQGIASHRTQQYIDEYYPNIGGPLLNQDKEEDELTDAESFRRVIRNGFRDSVIRVVAVTAARPFAVCFARQVAQVIGNETKYTTCAQALAVIGKQEGPGGLFSGLAPQIVGELLVIWGVHLITHGIQRAILRIEFGDTKNKDETKAKAAKDVHKFIHTAVPFLVNSFGYPYSVVSTVMAVAGSGLAVSFLPYSPSFNNWHGAWDYLRPIGLKRGNRLFLREQVGAVTVGVDQQLYASNSYFA” belongs “not soluble”; to “MSLKLVENLALKYYDKVVDLRHQIHMHPELEFEEENTAHLVCKILDEFGIKYQKNIAKTGILAIIEGKKKSQKKPKCVLLRADMDALPVQEKTNLSYASKIDGKMHACGHDGHTAGLLGAALILNELKDEFCGTIKFMFQPAEEGSGGAKPMIESGVLENPYVDAVFGCHLWGPLLENTAQIVSGEMMAGTDIFDLEFIGRGGHGAHPHTCIDPIIMTTQFVNNIQSVISRRLAPYEAGVITVGQICAGTTYNVIPTNAYLKGTVRFLNDKTQDILKSSLEEVAAATAKSNGGDYKLKYTKEFPPLINDEKAVLIARKAFAKVLGEENIIVSSKPDMGAEDFAFLTRERMGAYVFVGISKDLNHPALHHSSTFCWDDENLKVLMQGDVMMALEFLNEGGSHHHHHH”, “soluble”; to “MSQSSDASEKEKPKEKKSQEELEKELDKELKKGGEPKTKKDDQIHKIGETFKAGHTNFTVNKVDRVQKGEYMNVGGAVNEETKTIKDDEERLIIEVTMENIGEDSISYNFIGFDLRDKNDQSVRPVFSIEEKGRILMGGTLVSGKKVTGVLSYVIPKGEQKHYTLVYNPFLADTNSSNTEERVKDDIDYLVKLDLEHHHHHH”, “soluble”. To “GPLGSPEFGYWITCCPTCDVDINTWVPFYSTELNKPAMIYCSHGDGHWVHAQCMDLEERTLIHLSEGSNKYYCNEHVQIARA” belongs “soluble”. To “MGSDKIHHHHHHMKIYRVGGSVRDELLGLPVKDQDYVVVGATPEEMVRLGYRPVGKDFPVFLHPETHEQYALARTERKIARGYKGFEVYAAPGVTLQEDLARRDLTINAMARDEAGDIVDPFGGIADLQAGILRHIGPAFVEDPVRVLRVARFAARFGFQIAPETLELMKEIVHTGETEALVPERVWQEIAHGLMESHPSRMFYVLRECGALARILPEVDALFGVPQPAHAHPEIDTGIHVMMVIDHAASKQYPLEVRFAGLTHDLGKGTTSPDEWPRHIGHEARSVELVMGLCERIRVPGESRDLALLVARFHGDVHRALELRPATIADMLQATDAYRKKARFQAFLQACASDFHGRPGFADKPYPQKEHLSRALQVAVDVDAGAIAMQLNQSHAGKADLPMRINRQVYAARVERISSLLSHL” belongs “not soluble”.
